Data from patent US20240141062A1 (published 2024).

Assays:
[1] = biological target: T1, human CD38 on tumor cells (human, UniProt P28907 1-300); experiment: flow cytometry on Raji-CD47KO cells
T1 construct: whole, on cells; Endogenous CD38 of the cell lines; also called CD38 on Raji-CD47KO cells

human CD47 on cells = biological target: T2, human CD47 on cells (human, UniProt Q08722 19-323); experiment: flow cytometry on human red blood cells
T2 construct: whole, on cells; Endogenous CD47 of the cells; also called CD47 on Daudi cells; CD47 on RBCs

B1: BEAT CD38/CD47-60 (bispecific antibody, human IgG1, kappa)
heavy 1: EVQLVESGGGLIQPGGSLRLSCAASGFTLSRNTMHWVRQAPGKGLEWVSVIYQSGVTRYADSVKSRFTISRDNSKNTLYLQMNSLRAEDTAVYYCARGRYGVAGGPGYAFDVWGQGTLVTVSSASTKGPSVFPLAPSSKSTSGGTAALGCLVKDYFPEPVTVSWNSGALTSGVHTFPAVLQSSGLYSLSSVVTVPSSSLGTQTYICNVNHKPSNTKVDKKVEPKSCDKTHTCPPCPAPELLGGPDVFLFPPKPKDTLMISRTPEVTCVVVDVSHEDPEVKFNWYVDGVEVHNAKTKPREEQYNSTYRVVSVLTVLHQDWLNGKEYKCKVNNKALPAPEEKTISKAKGQPREPAVYTLPPSREEMTKNQVKLVCLVTGFYPSDIAVEWESSGQPENNYYTTPPMLDSDGSFSLVSWLNVDKSRWQQGNIFSCSVMHEALHNRFTQKSLSLSPG
heavy 2: not shown
light: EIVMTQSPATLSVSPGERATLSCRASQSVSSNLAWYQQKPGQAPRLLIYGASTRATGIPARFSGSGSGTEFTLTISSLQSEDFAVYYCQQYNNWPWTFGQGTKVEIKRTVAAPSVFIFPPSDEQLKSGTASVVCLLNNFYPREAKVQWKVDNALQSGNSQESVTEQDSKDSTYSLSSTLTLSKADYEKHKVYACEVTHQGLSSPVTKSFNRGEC
notes: 2+1 biparatopic BEAT: anti-CD47-H2 arm on BEAT (A); BEAT (B) carries Fc distal anti-CD38-B6-D9 and Fc proximal anti-CD38-E2-RecA Fabs; BEAT (A): S239D + I332E + S324N, BEAT (B): S324N; also called BEAT CD38/47-60; BEAT 38/47-60
- binding result [1]: binds
- binding result (human CD47 on cells): binds
